Assay results from the NTF2 design screens of Basanta et al. (2020).

Experiment: protease stability score; higher = more stable; yeast display proteolysis, trypsin and chymotrypsin;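 also: relative to predicted unfolded state with 0 unfolded-like and 1 meaning tenfold more protease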

| Sequence | protease stability score |
| --- | --- |
| DEDEEELEKMLHKMLESLRTGDWKDITENLDPHTRFNINGVDFHGRELAHEVLHEWFERYKNIRIFLNTSRTINGRVELILRIEIGDKEEEMRILVIKVDGRWFMDTVDVRTR | 2.13 |
| DEDEEEMEKMSREISEMLLTGDFDRLLELLDPNYRLRIGDKDLHGREEAKKHMHELFRHLGVDKFEVRLKQVELVDGVIWVHIEQRYDGRDFQIHVINKKIDGRWHVRRVEFE | 1.72 |
| DEDEEEMHHRIEEHFEYLRTGDWKLIRNLVDPSVRVDVDGKEHHGWHEFVRYAVHIRVRRYELKHIRIIDGQVDFQGRIDGEIDGKFRSFNIFIIAQKIDGRWIFKEVRMH | 1.68 |
| DEDEEEMRRVVELLVRDHFTGNFEKLKDLFDPNAKSDVDGVSMVGREWLEFLKRYLGADHIEVRVRHEDYYGNKVHFHLEIISRYGDKEIHVDTEMVIDKVDGRWYVRETRFK | 0.854 |
| DEDEEESRRFTEILLHKFWTGDEDWYRKMADPNDKSVVGDKLFHGRDEVDRAIHEFLRHLGVDHFELHRLEVDHYNGKAEVRSDMILRVNGQERRMILKVHNTKFNGRWTLESVRIESR | 0.715 |
| DEDEEEVIKFFQEFLRDELTGDWHEVHRMLDPHARLDINGKHFVGREDVTEFFKKLVNELRIHDVHIKDVRIIGEKASIDTSVDGEVNGRKRHFETRIIILKIDGQWFLHEVHMR | 1.47 |
| DEDEEEVRKFLHLELRSMETGDEHDLRRLADPHVRIHINGVILHGWEFFLETFRKLGFDHLRIEHVEVQGEKVHIKSRFEIGDKSFETEIIIRKVDGRWYVESIIVN | 0.873 |
| DEDEEEWHRFLELVHHFLRTGDWRRILDLIDPRALVHVGDKTFHGRHAIEHLLRHIHDRIPGMKQSLIIDHHDSQGDKIHLDVTLDLHFNGVEYHLRERTLELKINGKWVEKVREVD | 0.821 |
| DEDEEEYRRMHEILDDALETGDEHTISRMADPHVRNEINGVKLHGREIWFEYMKRLLDHLGVDNIKIKIRLRHIDRQGDKVLSETRLHVYFNGVEERRRTSQVWLKIDGQWHLHHVSVE | 0.869 |
| DEDEEFAENVVERTIHHTQTGDWRMLKHLLDPHVRMNIDGQELHGREQWIRFMEQIKGATLELHIEDFDSQGEKLTLHVRTILVFDGRKYERHVDLLILKVDGRWHIHQFIVR | 1.41 |
| DEDEEFAKELLERTAESIVTGDEDMWREYFDPHARIEFNGKDYHGWHEFERMLRELRVHRVEVEVKRVHLYDGRMDVKGELHIKGTFDGRRVEESTDVDYFIIKIDGQWYIRHETII | 0.761 |
| DEDEEFSKEAFEMVEWVIRTGDERLIEHMMDPNAKILIDGQEFWGRHIFSKHVEELGIDHIDDFQVKDVTFFNGRVNLNGELRGNFNGKETTFELHTIALKVNGQWINHSLEIK | 0.658 |
| DEDEEFWKELLRLFNEALITGDEDLLSHYADPNTRIRDENHKIHGRERYSRLMVKLGIDHVHLHSFTIIDGVAHIHLEWHQGDKTLDVRSYSRKFNGRWFLTHVRIK | 1.05 |
| DEDEEHARHMLEIFMHAVITGDEDTLKELVDPNVKLVVNGREFHGWEEYLKVHRHWRMRDAHIKHVEVQGEKVIVDTRLHGRVDGKLTDFRTEIIVRKINGRWHLESERVH | 2.13 |
| DEDEEHAYRIFKILLESVYTGNEEMLHTLLDPHARLVFDGVHHHGRETVSYMMHHWRVEEFHTHSFHVDIINGVADLKWDGHITGHFNGKRQESRVEIRFFLRKVDGKWLNESVEIIFR | 1.49 |
| DEDEEIARKIMEMLIEELRTGDEEKSTENADPNVRVHFNGKDLHGWEEFSRLASKFKGLRFILRRMDVFNGRVVIDGEERWDGRTHRVILHIEKVNGRWRIKQVDIH | 1.63 |
| DEDEEIAVKSYKKIVEDFFTGDEDSARRNADPDVLLRVGDKELHGWKHMTSWVHELRIHRIDIREIRVIGDKMFLHGEVDSEIDGKRLEFHLKLRMEKVDGRWIIRKIEIK | 1.49 |
| DEDEEIDKHVAKHLEELFLTGDEKRLSQYFDPDVRNEVNGKEFHGRELLLKVLRDFGADHRTVEHREVSLYGEKMRFHIHLRLHVGDKSMTTILHIIIDKVNGRWHFEKIRIDVR | 0.798 |
| DEDEEIIEKWVKMMLDAAHTGDERIIEENFDPNTRIHVDGQNHHGREHVHELRRRADYIRIILIIRSIRTQGDYVHVKGEIRIRINWNGRELHLEVEVEIIFLKFDGRWHIRSIVSI | 0.889 |
| DEDEEIRTRSLRLLIQLLITGDEEIFKQLFDPHALVIINGRRHHGWTLLEEYWRRLGADVIKSVELENTDDVNGVLILDMRLHMHINGRDDSQRIHIIATKINGKWRNESIVLS | 1.22 |
| DEDEEISHRMVRLIMQLMVTGDEESLKEYFDPNTRLFIDGRNNHGRELAVDEIQKHFEELGVDHIEIRIHHKDAQGDFVEIHIRLIIHVGDFEVRSTVHIFVRKVDGRWMIEKIEIK | 2.03 |
| DEDEEISKRLLKQLIHMLKTGDEDLFWHLFDPDTRLIVGDKEDHGREELAKSIRELWHEIRIERLHLRSIHIIGDFIHLIVRLIRNVNGKKDDINLELIVIKVDGKWRFKEMEIQ | 1.44 |
| DEDEEITERIIRLLLNAWMTGDEEMLKRLFDPHVRIDQGDKNLIGWEELERETRRIDHIRLDLRIKHIKVYDGRVEINSFLHVDLHINGVTLHHELRMHIIIEKVDGRWIIHSQKLE | 1.25 |
| DEDEEKAKEAWEDIVRDIETGNEESMEKMLDPNTRLVVGEKERHGWESASKFVRELRHRVDHVELRLKDSKLYNGRVELDGLLIENFNGVEVRHKMIVFILKINGRWHIESVIIH | 1.44 |
| DEDEEKARKFTELLVRSWRTGDEDSLREMVDPHVRVDVDGVKLHGWHDFMKLVRHIRVRDLHNREFTFFEGRADIIQETDVDIGDKERRTVITIRMTKYDGRWFLHNVTVH | 1.38 |
